The values that follow come from patent US20190031751A1 (University of Texas, published 2019).

For the experiment, the target named is T1, Human epidermal growth factor (EGF)-like domain multiple 6 (EGFL6) protein (human, UniProt Q8IUX8 22-553).
T1 construct: Secreted protein; also called human EGFL6; recombinant human EGFL6
T1 sequence (looked up): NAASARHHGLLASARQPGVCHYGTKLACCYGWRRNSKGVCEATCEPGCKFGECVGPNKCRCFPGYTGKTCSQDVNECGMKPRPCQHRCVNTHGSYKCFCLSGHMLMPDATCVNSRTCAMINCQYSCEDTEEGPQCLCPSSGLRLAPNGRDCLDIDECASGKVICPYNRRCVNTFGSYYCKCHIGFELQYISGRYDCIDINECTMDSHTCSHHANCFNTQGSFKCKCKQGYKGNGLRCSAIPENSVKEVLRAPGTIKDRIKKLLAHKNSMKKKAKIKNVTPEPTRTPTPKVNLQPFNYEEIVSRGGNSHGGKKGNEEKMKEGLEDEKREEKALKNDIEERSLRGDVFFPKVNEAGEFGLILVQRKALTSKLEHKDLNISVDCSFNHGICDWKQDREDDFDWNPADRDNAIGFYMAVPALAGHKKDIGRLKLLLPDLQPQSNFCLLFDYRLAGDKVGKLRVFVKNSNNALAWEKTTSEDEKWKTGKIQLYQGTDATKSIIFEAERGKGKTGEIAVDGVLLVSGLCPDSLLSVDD
Nature of the experiment: ELISA titration on coated EGFL6, 4-parameter curve fit. The protocol: Binding of EGFL6 by monoclonal antibodies was first screened by ELISA using supernatants collected from the B cell cultures (FIG. 2). ELISA titration was used to determine the binding affinity of a panel of monoclonal antibodies to EGFL6 antigen (FIG. 3). Binding constants (KD and/or EC 50) of a panel of monoclonal antibodies were estimated using the 4 parameter curve fitting with Prism GraphPad program. For Biacore analysis, all experiments were performed at 25° C. at a flow rate of 45 μl/min. An anti-human IgG Fc antibody (from ThermoFisher, at 50 μg/ml each in acetate buffer, pH 5.0) was immobilized onto a carboxymethyl dextran sensorchip (CMS) using amine coupling procedures based on instruction from the manufacturer. Purified rabbit/human chimeric antibody to be tested was diluted at a concentration of 5 μg/ml in 0.5% P20, HBS-EP buffer and injected on FC2 to reach 500 to 1000 RU. FC1 was used as the reference cell. Specific signals correspond to the difference of signals obtained on FC2 versus FC1. The analyte (recombinant human EGFL6, apparent molecular weight 60 kDa on SDS-PAGE gel) was injected during 90 sec at series of concentration dilutions (100, 50, 25, 12.5, 6.25, and 3.13, 1.56 nM) in 0.5% P20, HBS-EP buffer. These concentrations were prepared from stock solution in 0.5% P20, HBS-EP. The dissociation phase of the analyte was monitored over a 30 minutes period. Running buffer was also injected under the same conditions as a double reference. After each running cycle, both flow cells were regenerated by injecting 20 to 45 μl of Glycine-HCl buffer pH 1.5. Binding KD on EGFL6 was calculated by koff/kₒₙ kinetic rate for each EGFL6 monoclonal antibodies (Table 3).
(An ELISA detects its analyte on a solid surface through an enzyme-linked reagent.)

B1: E2-135 monoclonal antibody (antibody, V domains shown)
VH: QSVKESEGDLVKPGASLTLTCKASGFDFSSSYFMCWVRQAPGRGLEWIACIYTVISRKTYYASWAKGRFTISKTSATTVDLQMTSLTAADTATYFCARSATIERLDLWGQGTLVTVSS
VL: ELDLTQTPSPVSAPVGGTVTINCQASESVYNNYRLSWYQQKPGQPPKLLIYAASTLASGVPSRFKGSGSGTQFTLAISDVVCDDAATYYCVGYKSGYIDSIPFGGGTEVVVK
notes: Rabbit variable domains; also called mAb135
In general, EC50 refers to the concentration that produces a half-maximal response. Molecule B1 came in with an EC50 of 0.44 ng/mL.

B2: E2-93 monoclonal antibody (antibody, V domains shown)
VH: QSVKESEGGLVQPEGSLTLTCKASGFSFSSYGVNWVRQAPGKGLEWIAYIGLSSEITYYAGWAKGRFTISKPSSTTVTLQMTSLTAADTATYFCVRDLYHSNGLWGPGTLVTISS
VL: ELDLTQTPSPVSAAVGGTVTVSCQASESVYNNNRLSWYQQKPGQPPKLLIYYASTLASGVPSRFSGSGSGTQFTLTISSVQCADAATYYCVAFKGYGTDGNAFGGGTEVEIK
notes: Rabbit variable domains; also called Mab #93; mAb93
The molecule B2 came in with an EC50 of 0.37 ng/mL.

B3: E1-38 monoclonal antibody (antibody, V domains shown)
VH: EQSVKESGGDLVKPEGSLTLTCTASGFSFNSGYWVCWVRQAPGKGLEWIACIYTSSPTGAIYYATWAKGRFTISQTSSTTVTLQMTSLTAADTATYFCTRDNFGGGGSASKLWGPGTLVTISS
VL: ELVMTQTPSSKSVPVGGTVTIDCQASESVYSNNRCAWYQQKPGQPPKLLIYYASTLASGVPSRFKCSGSGTRFTLTISGVQCEDAATYYCAGYKTADSDGLGFGGGTEVEIK
notes: Rabbit variable domains
The molecule B3 displayed an EC50 of 5.81 ng/mL.

B4: E1-34 monoclonal antibody (antibody, V domains shown)
VH: EQSVKESGGGLVQPEGSLTLTCTASGFSFSSIYWICWVRQAPGKGLELIACIQITSGITYYASWAKGRFTISKMSSTTVTLQMTSLTVADTATYFCGRRGYGAYAGTGASDLWGPGTLVTVSS
VL: ELDLTQTASSVSAAVGGTVTINCQSSQSVYNNNNLAWYQQKPGQPPKLLIYEASKLASGVPSRFKGSGSGTQFTLTISGVQCDDAATYYCAGGYAGYIWAFGGGTEVVVK
notes: Rabbit variable domains
The molecule B4 displayed a concentration giving a half-maximal response (EC50) of 0.78 ng/mL.

B5: E1-142 monoclonal antibody (antibody, V domains shown)
VH: QSLEESGGDLVKPGASLTLTCTASGFTINNYNINWVRQAPGKGLEWIARIWNGDGSTYYASWAKGRFTISKTSSTTVTLQMTSLTAADTATYFCARNFNLWGPGTLVTISS
VL: ELVLTQTPSPVSAAVGGTVTINCQSSASVYSNNYLSWFQQKPGQPPKPLIYYASTLASGVPSRFKGSGSGTQFTLTISDVQCDDAATYYCAGDYSSSSDMCIFGGGTELEIK
notes: Rabbit variable domains
Consider B5, for which the midpoint of the response, the EC50, lay at 1.91 ng/mL.
